From EP4722245A1, “ANTIBODY TARGETING ITGA2, ANTIBODY DRUG CONJUGATE THEREOF, AND USE” (Foreseen Technology (Beijing) Co., Ltd., priority 2023, dated 2024)
Changes are numbered by the printed parent chain.

T1: ITGA2 protein on the surface of human tumor cells (human, UniProt P17301 30-1181)
T1 sequence (looked up): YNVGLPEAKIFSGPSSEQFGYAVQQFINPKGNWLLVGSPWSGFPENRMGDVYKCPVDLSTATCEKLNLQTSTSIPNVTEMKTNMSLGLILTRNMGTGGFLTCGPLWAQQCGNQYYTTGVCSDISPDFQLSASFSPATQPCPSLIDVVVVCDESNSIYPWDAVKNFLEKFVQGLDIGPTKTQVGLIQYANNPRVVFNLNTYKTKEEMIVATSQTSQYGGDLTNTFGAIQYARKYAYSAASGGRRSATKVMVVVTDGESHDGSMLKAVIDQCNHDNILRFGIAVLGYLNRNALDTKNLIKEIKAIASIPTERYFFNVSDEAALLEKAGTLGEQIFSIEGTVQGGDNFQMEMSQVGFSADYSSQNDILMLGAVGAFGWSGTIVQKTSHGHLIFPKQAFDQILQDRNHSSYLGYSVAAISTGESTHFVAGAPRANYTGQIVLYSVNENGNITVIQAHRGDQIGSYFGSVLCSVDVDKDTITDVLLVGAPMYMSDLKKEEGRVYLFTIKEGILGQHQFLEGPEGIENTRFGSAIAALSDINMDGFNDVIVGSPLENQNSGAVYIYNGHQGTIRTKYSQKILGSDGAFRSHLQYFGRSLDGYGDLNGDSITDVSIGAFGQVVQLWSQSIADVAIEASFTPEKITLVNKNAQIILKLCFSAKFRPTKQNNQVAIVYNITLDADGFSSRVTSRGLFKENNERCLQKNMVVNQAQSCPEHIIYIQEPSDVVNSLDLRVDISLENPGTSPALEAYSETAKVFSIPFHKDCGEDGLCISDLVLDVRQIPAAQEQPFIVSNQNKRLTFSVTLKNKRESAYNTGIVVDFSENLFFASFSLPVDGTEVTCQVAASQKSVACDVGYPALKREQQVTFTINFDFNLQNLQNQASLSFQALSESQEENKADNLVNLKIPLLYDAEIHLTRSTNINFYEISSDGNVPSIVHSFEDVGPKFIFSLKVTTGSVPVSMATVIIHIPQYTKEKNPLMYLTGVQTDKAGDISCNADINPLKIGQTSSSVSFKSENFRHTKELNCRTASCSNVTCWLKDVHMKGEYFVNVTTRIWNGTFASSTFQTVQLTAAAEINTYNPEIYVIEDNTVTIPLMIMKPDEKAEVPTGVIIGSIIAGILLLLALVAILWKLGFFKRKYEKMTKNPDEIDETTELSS

T2: ITGA2-His (UniProt P17301 30-1132, limits assumed)
T2 construct: Coated on the ELISA plate at 2 ug/mL; whole entry P17301 is named; also called ITGA2 protein; not shown: His tag
T2 sequence (looked up): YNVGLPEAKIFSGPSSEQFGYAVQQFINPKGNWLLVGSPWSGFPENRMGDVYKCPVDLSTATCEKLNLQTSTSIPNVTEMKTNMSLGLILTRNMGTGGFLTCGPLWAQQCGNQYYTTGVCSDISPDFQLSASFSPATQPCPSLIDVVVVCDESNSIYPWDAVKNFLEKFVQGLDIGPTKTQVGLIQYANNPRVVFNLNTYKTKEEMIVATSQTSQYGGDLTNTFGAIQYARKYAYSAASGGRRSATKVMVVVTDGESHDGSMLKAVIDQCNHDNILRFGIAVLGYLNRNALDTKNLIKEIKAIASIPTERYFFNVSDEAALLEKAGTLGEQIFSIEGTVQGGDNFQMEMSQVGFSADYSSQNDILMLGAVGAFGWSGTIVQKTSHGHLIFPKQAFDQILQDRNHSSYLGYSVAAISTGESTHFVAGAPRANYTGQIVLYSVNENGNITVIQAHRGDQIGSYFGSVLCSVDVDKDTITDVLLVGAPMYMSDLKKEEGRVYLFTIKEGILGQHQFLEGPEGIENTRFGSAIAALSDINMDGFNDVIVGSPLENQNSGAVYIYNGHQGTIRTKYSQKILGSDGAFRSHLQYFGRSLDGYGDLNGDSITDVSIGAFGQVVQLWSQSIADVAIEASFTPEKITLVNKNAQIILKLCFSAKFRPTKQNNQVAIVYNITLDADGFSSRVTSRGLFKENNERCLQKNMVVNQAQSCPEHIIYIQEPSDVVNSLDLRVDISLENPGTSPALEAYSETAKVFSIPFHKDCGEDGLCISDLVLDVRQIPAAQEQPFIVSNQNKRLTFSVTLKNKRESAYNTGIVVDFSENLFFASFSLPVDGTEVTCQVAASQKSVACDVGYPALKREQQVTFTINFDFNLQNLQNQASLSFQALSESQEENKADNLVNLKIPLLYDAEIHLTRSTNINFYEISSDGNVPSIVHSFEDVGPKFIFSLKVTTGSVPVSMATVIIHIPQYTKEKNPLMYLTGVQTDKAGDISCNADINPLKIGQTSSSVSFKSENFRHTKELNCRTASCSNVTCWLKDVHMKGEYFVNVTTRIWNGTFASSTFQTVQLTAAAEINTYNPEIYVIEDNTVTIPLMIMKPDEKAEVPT

B1: FS002-A226-H3L4-vcMMAE (antibody, human IgG1, kappa, V domains shown)
VH: QLQLVQSGAEVKKPGASVKVSCKASGYTFTDYEIHWVRQAPGQGLEWIGAIDPETGGTNYNQKFNDRVTLTADTSISTAYMELSRLRSDDTAVYYCSRSGYYVSNYESYAMDYWGQGTTVTVSS
VL: DIQLTQSPSSLSASVGDRVTITCRASQDIKSYLSWYQQKPGKAPKLLIYDTSNLASGVPSRFSGSGSGTDFTLTISSLQPEDFATYYCQQWSSYPFTFGGGTKLEIKR
modifications: vc-MMAE, attachment residues not stated; vc-MMAE (mc-vc-PAB-MMAE) conjugated after TCEP reduction, DAR 3.8 per antibody; attachment residues not stated
B2: Vatelizumab-vc-MMAE: Antibody-drug conjugate of the positive control antibody Vatelizumab with vc-MMAE linker-payload (conjugate, chains of the INN, looked up)
VH: QVQLQESGPGLVKPSETLSLTCTVSGFSLTNYGIHWIRQPPGKGLEWLGVIWARGFTNYNSALMSRLTISKDNSKNQVSLKLSSVTAADTAVYYCARANDGVYYAMDYWGQGTLVTVSS
VL: DFVMTQSPAFLSVTPGEKVTITCSAQSSVNYIHWYQQKPDQAPKKLIYDTSKLASGVPSRFSGSGSGTDYTFTISSLEAEDAATYYCQQWTTNPLTFGQGTKVEIK
modifications: vc-MMAE linker-payload
B3: FS002-A153-H5L5-vcMMAE (antibody, human IgG1, kappa, V domains shown)
VH: QVQLVQSGAEVKKPGASVKVSCKASGYTFTDYEMHWVRQAPGQGLEWMGTIDPETGGTTYAQKFQGRVTMTADTSISTAYMELSRLRSDDTAVYYCARSGYYVSSYESYAMDYWGQGTTVTVSS
VL: EIVMTQSPPTLSLSPGERVTMSCRSSQSLLNSGNQKNYLTWYQQKPGQAPRLLIYGASTRESGVPARFSGSGSGTDFTLTISSLQPEDFAVYYCQNDYSYPFTFGGGTKLEIKR
modifications: vc-MMAE, attachment residues not stated; vc-MMAE (mc-vc-PAB-MMAE) conjugated after TCEP reduction, DAR 4.0 per antibody; attachment residues not stated
B4: FS002-A103-H4L3-vcMMAE (antibody, human IgG1, kappa, V domains shown)
VH: B3 VH with T50V, A61N, M70L, A97S
VL: EIVMTQSPPTMSMSPGERVTLSCKASENVGTYVSWYQQKPGQAPRLLIYGASTRESGVPARFSGSGSGTDFTLTISSLQPEDFAVYYCQNDYSYPFTFGGGTKLEIKR
modifications: vc-MMAE, attachment residues not stated; vc-MMAE (mc-vc-PAB-MMAE) conjugated after TCEP reduction, DAR 3.5 per antibody; attachment residues not stated
B5: FS002-A103-H4L4-vcMMAE (antibody, human IgG1, kappa, V domains shown)
VH: B3 VH with T50V, A61N, M70L, A97S
VL: B4 VL with M11L, M13L, K24R, V58I
modifications: vc-MMAE, attachment residues not stated; vc-MMAE (mc-vc-PAB-MMAE) conjugated after TCEP reduction, DAR 3.7 per antibody; attachment residues not stated
B6: FS002-A208-H4L4-vcMMAE (antibody, human IgG1, kappa, V domains shown)
VH: B1 VH with L2V, N65Q, D66G
VL: DIQMTQSPSSLSASVGDRVTITCRASQNVGTNVAWYQQKPEKAPKSLIYSASYRFSGVPSRFSGSGSGTDFTLTISSLQPEDFATYYCQQYNIYPLSFGGGTKLELKR
modifications: vc-MMAE, attachment residues not stated; vc-MMAE (mc-vc-PAB-MMAE) conjugated after TCEP reduction, DAR 4.1 per antibody; attachment residues not stated
B7: FS002-A208-H5L4-vcMMAE (antibody, human IgG1, kappa, V domains shown)
VH: B3 VH with M34I, T50A, T59N, A97S, S105N
VL: B6 VL
modifications: vc-MMAE, attachment residues not stated; vc-MMAE (mc-vc-PAB-MMAE) conjugated after TCEP reduction, DAR 4.0 per antibody; attachment residues not stated
B8: FS002-A153-H5L2-vcMMAE (antibody, human IgG1, kappa, V domains shown)
VH: B3 VH
VL: DIVMTQSPDSLAVSLGERVTMNCKSSQSLLNSGNQKNYLTWYQQKPGQPPKLLIYGASTRESGVPDRFSGSGSGTDFTLTISSLQAEDVAVYYCQNDYSYPFTFGGGTKLEIKR
modifications: vc-MMAE, attachment residues not stated; vc-MMAE (mc-vc-PAB-MMAE) conjugated after TCEP reduction, DAR 3.5 per antibody; attachment residues not stated
B9: FS002-A226-H5L4-vcMMAE (antibody, human IgG1, kappa, V domains shown)
VH: B3 VH with M34I, T50A, T59N, A97S, S105N
VL: B1 VL
modifications: vc-MMAE, attachment residues not stated; vc-MMAE (mc-vc-PAB-MMAE) conjugated after TCEP reduction, DAR 3.8 per antibody; attachment residues not stated
B10: FS002-A153-H4L2-vcMMAE (antibody, human IgG1, kappa, V domains shown)
VH: B3 VH with M70L, A97S
VL: B8 VL
modifications: vc-MMAE, attachment residues not stated; vc-MMAE (mc-vc-PAB-MMAE) conjugated after TCEP reduction, DAR 3.8 per antibody; attachment residues not stated
B11: FS002-A153-H5L1-vcMMAE (antibody, human IgG1, kappa, V domains shown)
VH: B3 VH
VL: B8 VL with N22S, S69T
modifications: vc-MMAE, attachment residues not stated; vc-MMAE (mc-vc-PAB-MMAE) conjugated after TCEP reduction, DAR 3.7 per antibody; attachment residues not stated
B12: FS002-A153-H3L3-vcMMAE (antibody, human IgG1, kappa, V domains shown)
VH: B3 VH with V20L, M48I, A61N, M70L, A97S
VL: B8 VL with V19A, M21I
modifications: vc-MMAE, attachment residues not stated; vc-MMAE (mc-vc-PAB-MMAE) conjugated after TCEP reduction, DAR 3.8 per antibody; attachment residues not stated
B13: FS002-A103-H4L2-vcMMAE (antibody, human IgG1, kappa, V domains shown)
VH: B3 VH with T50V, A61N, M70L, A97S
VL: B4 VL with P9K, A60D
modifications: vc-MMAE, attachment residues not stated; vc-MMAE (mc-vc-PAB-MMAE) conjugated after TCEP reduction, DAR 3.5 per antibody; attachment residues not stated
B14: Humanized antibody FS002-A103-H4L4 (antibody, human IgG1, kappa, V domains shown)
VH: B3 VH with T50V, A61N, M70L, A97S
VL: B4 VL with M11L, M13L, K24R, V58I
notes: Humanized IgG1 kappa

Key:
[1] = biological target: ITGA2 protein on the surface of human tumor cells (human) (UniProt P17301); test: cell-based or functional assay
[2] = biological target: T1, ITGA2 protein on the surface of human …; test: cell-based or functional assay
[3] = system: Human epidermal cancer cells A431; test: ADC cancer cell killing assay (Cell-Titer-Glo 2.0); assay type: cell-based; settings: 5 days at 37°C, 3-fold gradient, 11 points
Description: Human epidermal cancer cells A431 available from Procell Life Science&Technology Co.,Ltd. (Wuhan) were seeded into a 96-well plate at 2500 cells/well. It was then incubated in a 5% CO2 incubator overnight at 37°C. Half of the medium was removed from the cell plate on the next day. A 2x hIgG1-vcMMAE (negative control ADC, provided by ChemPartner), a control antibody and the ADC prepared as the above were prepared with a complete culture medium, and then diluted at a 3-fold gradient with 11 specific concentration points in total. Serial dilutions of the above molecules were added to the appropriate wells, and it was then incubated in a 5% CO2 incubator for 5 days at 37°C. After the incubation, 100 uL of Cell-Titer-Glo 2.0 reagent was added to the 96-well plate. It was then well mixed on a plate shaker for 2 minutes, and finally equilibrated at room temperature for 10 minutes. Readings were taken using a microplate reader. Finally, IC50 was used to compare the biological activity of the ADC against each cell line.

ITGA2-His = biological target: T2, ITGA2-His; test: ELISA, plate coated with 2 ug/mL ITGA2-His, anti-human IgG-Fc-HRP detection
[4] = biological target: T1, ITGA2 protein on the surface of human …; test: flow cytometry on HuCCT1 cells

Molecule	A431 cell killing IC50 [2] [pM]	also measured
Vatelizumab-vc-MMAE (antibody)		A431 cell killing IC50 [1]: 54 pM
B1	63	
B2		IC50 [3]: 54 pM; IC50 ([3]; listed as Vatelizumab-ve-MMAE): < 100 pM
B3	73	
B4	70	
B5	52	
B6	51	
B7	83	
B8	28	
B9	49	
B10	57	
B11	82	
B12	88	
B13	61	
B14		EC50 (ITGA2-His): 10 pM; EC50 [4]: 300 pM
